Experiments:
[1] = system: hLPL bound to immobilized heparan sulfate; test: GPIHBP1-mediated extraction of LPL from HSPGs (SPR, immobilized heparin dp4 fragments); format: binding, human
Description: To mimic electrostatic conditions found in the sub-endothelial spaces where surface-bound heparan-sulfate proteoglycans (HSPGs) are abundant, we designed a surrogate sensor surface using a streptavidin-coated CM5 sensor chip to capture high densities of biotinylated synthetic heparin dp4 fragments ([28], [29]). The reference surface was loaded with a neutral and non-sulfated fragment (M09 S00 from Iduron), while the active surface was loaded with a negatively charged fragment (M09 S08a from Iduron) containing N- and O-6-linked sulfations on each of the […] glucosamine residues in the DP4 fragment. Only the highly sulfated oligosaccharide bound LPL, and those interactions were transient with high off-rates. Despite the very transient nature of this binding, we created a stable reservoir of hLPL on the sensor surface by combining the fast kinetics of polyelectrolyte interactions with severe mass transport limitation—the latter phenomenon impedes LPL escape from the surface due to the fast rebinding that is favored by the high densities of immobilized heparin fragments (300 fmol/mm^2). For each experiment, 12.5 nM hLPL was loaded for 100 s at a flow rate of 20 μl/min in 10 mM Hepes (pH 7.4), 150 mM NaCl, 4 mM CaCl2, 10% (vol/vol) glycerol, 0.05% (vol/vol) surfactant P20, 1 mg/ml defatted BSA, […], and 0.05% (wt/vol) NaN3.
To compare the ability of GPIHBP1^1–131 and its charge variants to bind and extract hLPL from this dynamic reservoir, we injected twofold serial dilutions of 1.25–200 nM GPIHBP1^1–131; 1.25–200 nM GPIHBP1^Cluster1-neutral; GPIHBP1^Cluster2-neutral; 1.25–200 nM GPIHBP1^34–131; 0.1–1.6 μM GPIHBP1^1–33 with Tyr^18–SO4; or 1.25–200 nM GPIHBP1^34–131 in the presence of 1 μM sulfated GPIHBP1^1–33 for 250 s at 20 μl/min in 10 mM Hepes (pH 7.4), 150 mM NaCl, 4 mM CaCl2, 10% (vol/vol) glycerol, 0.05% (vol/vol) surfactant P20, 0.2 mg/ml fatty acid-free BSA, and 0.05% (wt/vol) NaN3. At the end of each cycle, two consecutive injections of 10 μl 3 M guanidinium chloride regenerated the chip.
GPIHBP1’s ability to displace LPL from its HSPG-bound state in the sub-endothelial spaces is essential for the trans-endothelial trafficking of LPL to the luminal surface of capillary cells ([29]). The importance of the acidic tail in this process is supported by solid evidence from surrogate in vitro models and in vivo studies in gene-edited mice ([28], [29]). It was therefore important to determine the relative impact of the two charge-clusters in GPIHBP1 on their ability to disrupt LPL•HSPG interactions. To gain this insight, we measured the ability of different GPIHBP1 charge variants to displace hLPL from a SPR sensor chip surface coupled with a high density of immobilized small heparin-like fragments ([28]). […]

bLPL = test: Lipase activity assay, protection against ANGPTL4-catalyzed LPL inactivation; format: biochemical, bovine; conditions: 30 nM bLPL, 30 nM ANGPTL4, 300 nM GPIHBP1 variant, room temperature up to 60 min; Intralipid, NEFA; triplicates

Row | Molecule | competitive displacement of HSPG-bound hLPL (in words) ([1]; 12.5–200 nM GPIHBP1 proteins, 0.1–1.6 μM sulfated GPIHBP1^1–33, or GPIHBP1^34–131 with 1 μM sulfated GPIHBP1^1–33) | reduction in hLPL levels on the sensor surface after GPIHBP1 injections (ΔLPL, displaced LPL) ([1]; serial twofold dilutions 12.5–200 nM, 250 s at 20 μl/min, pH 7.4, mean ± SD, n = 3) | protection of bLPL from ANGPTL4-mediated inactivation (time-dependent decay of LPL activity) (bLPL)
1 | GPIHBP1^Cluster2-neutral: GPIHBP1 mutant with all Glu/Asp replaced by Gln/Asn at residues 19–30 (protein, Tyr18 sulfation absent; one bi-antennary N-linked glycosylation; left off: uPAR domain III, N-terminal, cleaved) QTQQEEEEEDEDHGPDDYNQQNQNQVQQQQTNRLPGGGSRVLLRCYTCKSLPRDERCNLTQNCSHGQTCTTLIAHGNTESGLLTTHSTWCTDSCQPITKTVEGTQVTMTCCQSSLCNVPPWQSSRVQDPTG | neither dislodged any LPL from the surface |  | 
2 | GPIHBP1^Cluster1-neutral: GPIHBP1 mutant with all Glu/Asp replaced by Gln/Asn at residues 1–17 (protein, Tyr18 sulfation present in less than 40%; one bi-antennary N-linked glycosylation; left off: uPAR domain III, N-terminal, cleaved) QTQQQQQQQNQNHGPNNYDEEDEDEVEEEETNRLPGGGSRVLLRCYTCKSLPRDERCNLTQNCSHGQTCTTLIAHGNTESGLLTTHSTWCTDSCQPITKTVEGTQVTMTCCQSSLCNVPPWQSSRVQDPTG |  | 35% | greater efficacy than GPIHBP1^Cluster2-neutral
